The Immune Epitope Database (IEDB)
pKd: −log10 of the molar value.

Columns and labels:
[1] = molecular target: HLA-A*02:50; assay: IEDB peptide-MHC binding, purified MHC/competitive/fluorescence; filed as Kd, often an IC50 or EC50 that approximates it; ≥ and ≤ were set here for values at or beyond the usual limits of such assays; conditions: source organism: Entamoeba histolytica HM-1:IMSS
[2] = molecular target: HLA-B*15:42; assay: as above; conditions: source organism: Entamoeba histolytica HM-1:IMSS
[3] = molecular target: HLA-C*06:02; assay: as above; conditions: source organism: Entamoeba histolytica HM-1:IMSS
[4] = molecular target: HLA-B*45:06; assay: as above; conditions: source organism: Entamoeba histolytica HM-1:IMSS
[5] = molecular target: HLA-A*03:19; assay: as above; conditions: source organism: Entamoeba histolytica HM-1:IMSS
[6] = molecular target: HLA-B*83:01; assay: as above; conditions: source organism: Entamoeba histolytica HM-1:IMSS
[7] = molecular target: HLA-B*07:02; assay: IEDB peptide-MHC binding, purified MHC/direct/fluorescence; filed as Kd, often an IC50 or EC50 that approximates it; ≥ and ≤ were set here for values at or beyond the usual limits of such assays; conditions: source organism: Entamoeba histolytica
[8] = molecular target: HLA-A*03:01; assay: as above; conditions: source organism: Entamoeba histolytica
[9] = molecular target: HLA-B*58:01; assay: as above; conditions: source organism: Entamoeba histolytica
[10] = molecular target: HLA-A*02:11; assay: as above; conditions: source organism: Entamoeba histolytica HM-1:IMSS
[11] = molecular target: HLA-A*69:01; assay: as above; conditions: source organism: Entamoeba histolytica
[12] = molecular target: HLA-C*08:02; assay: as above; conditions: source organism: Entamoeba histolytica HM-1:IMSS
[13] = molecular target: HLA-A*02:01; assay: as above; conditions: source organism: Entamoeba histolytica
[14] = molecular target: HLA-A*02:19; assay: as above; conditions: source organism: Entamoeba histolytica HM-1:IMSS
[15] = molecular target: HLA-A*24:02; assay: as above; conditions: source organism: Entamoeba histolytica
[16] = molecular target: HLA-B*44:02; assay: as above; conditions: source organism: Entamoeba histolytica
[17] = molecular target: HLA-A*01:01; assay: as above; conditions: source organism: Entamoeba histolytica
[18] = molecular target: HLA-B*27:05; assay: as above; conditions: source organism: Entamoeba histolytica
[19] = molecular target: HLA-B*18:01; assay: as above; conditions: source organism: Entamoeba histolytica
[20] = molecular target: HLA-B*15:01; assay: as above; conditions: source organism: Entamoeba histolytica
[21] = molecular target: HLA-B*40:01; assay: as above; conditions: source organism: Entamoeba histolytica
[22] = molecular target: HLA-A*02:06; assay: as above; conditions: source organism: Entamoeba histolytica HM-1:IMSS
[23] = molecular target: HLA-A*02:12; assay: as above; conditions: source organism: Entamoeba histolytica HM-1:IMSS
[24] = molecular target: HLA-A*02:03; assay: as above; conditions: source organism: Entamoeba histolytica HM-1:IMSS
[25] = molecular target: HLA-C*15:02; assay: as above; conditions: source organism: Entamoeba histolytica HM-1:IMSS
[26] = molecular target: HLA-A*25:01; assay: IEDB peptide-MHC binding, purified MHC/competitive/fluorescence; filed as Kd, often an IC50 or EC50 that approximates it; ≥ and ≤ were set here for values at or beyond the usual limits of such assays; conditions: source organism: Vibrio antiquarius
[27] = molecular target: HLA-A*03:01; assay: as above; conditions: source organism: Vibrio antiquarius
[28] = molecular target: HLA-B*57:01; assay: as above; conditions: source organism: Vibrio antiquarius
[29] = molecular target: HLA-B*46:01; assay: as above; conditions: source organism: Vibrio antiquarius
[30] = molecular target: HLA-A*02:11; assay: as above; conditions: source organism: Vibrio antiquarius
[31] = molecular target: HLA-A*69:01; assay: as above; conditions: source organism: Vibrio antiquarius
[32] = molecular target: HLA-A*02:01; assay: as above; conditions: source organism: Vibrio antiquarius
[33] = molecular target: HLA-A*02:19; assay: as above; conditions: source organism: Vibrio antiquarius
[34] = molecular target: HLA-A*68:02; assay: as above; conditions: source organism: Vibrio antiquarius
[35] = molecular target: HLA-A*26:01; assay: as above; conditions: source organism: Vibrio antiquarius
[36] = molecular target: HLA-B*51:01; assay: as above; conditions: source organism: Vibrio antiquarius
[37] = molecular target: HLA-A*29:02; assay: as above; conditions: source organism: Vibrio antiquarius
[38] = molecular target: HLA-B*27:03; assay: as above; conditions: source organism: Vibrio antiquarius
[39] = molecular target: HLA-B*15:17; assay: as above; conditions: source organism: Vibrio antiquarius
[40] = molecular target: HLA-B*18:01; assay: as above; conditions: source organism: Vibrio antiquarius
[41] = molecular target: HLA-B*39:01; assay: as above; conditions: source organism: Vibrio antiquarius
[42] = molecular target: HLA-A*24:03; assay: as above; conditions: source organism: Vibrio antiquarius
[43] = molecular target: HLA-B*15:01; assay: as above; conditions: source organism: Vibrio antiquarius
[44] = molecular target: HLA-A*23:01; assay: as above; conditions: source organism: Vibrio antiquarius
[45] = molecular target: HLA-A*02:12; assay: as above; conditions: source organism: Vibrio antiquarius
[46] = molecular target: HLA-A*02:03; assay: as above; conditions: source organism: Vibrio antiquarius
[47] = molecular target: HLA-A*80:01; assay: as above; conditions: source organism: Vibrio antiquarius

Measured: pKd

KLMPGSIYV
8.70: [22] | [23]
≥ 9.00: [10] | [14] | [24]
6.96: [5]
6.90: [20]
7.15: [25]
6.43: [11]
8.21: [13]
≤ 4.70: [7] | [9] | [12] | [15] | [16] | [17] | [18] | [19] | [21]
5.93: [3]
6.86: [8]
≥ 10.00: [1]
≤ 5.30: [2] | [4] | [6]

SLTIPSFYT
8.01: [30]
≤ 4.70: [26] | [27] | [28] | [29] | [31] | [32] | [33] | [34] | [35] | [36] | [37] | [38] | [39] | [40] | [41] | [42] | [43] | [44] | [45] | [46] | [47]
